The target of assay [1] is T1, CTLA-4-Fc (human recombinant protein, R&D Systems) (human, UniProt P16410 37-162).
T1 construct: also called CTLA-4-Fc antigen; not shown: Fc part of the bought fusion
T1 sequence: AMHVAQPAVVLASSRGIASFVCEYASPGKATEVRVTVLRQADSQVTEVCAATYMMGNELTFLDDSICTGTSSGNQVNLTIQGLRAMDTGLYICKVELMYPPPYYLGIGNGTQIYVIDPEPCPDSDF
The experiment in a line: Octet, same tip after PDL1-His and bispecific, then CTLA-4-Fc (100 nM per paragraph 296): concurrent binding.

For assay [2], the target named is T2, human OX40 expressed on cells (human, UniProt P43489 29-277).
T2 sequence: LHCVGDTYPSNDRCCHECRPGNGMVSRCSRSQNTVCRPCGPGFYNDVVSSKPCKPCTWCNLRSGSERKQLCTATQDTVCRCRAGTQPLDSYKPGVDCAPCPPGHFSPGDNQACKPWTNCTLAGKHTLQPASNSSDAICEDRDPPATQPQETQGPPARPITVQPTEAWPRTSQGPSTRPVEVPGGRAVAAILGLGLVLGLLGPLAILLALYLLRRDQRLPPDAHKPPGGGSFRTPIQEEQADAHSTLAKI
The experiment in a line: cell-based or functional assay.

The target in assay [3] is T3, human PD-1 expressed on cells (human, UniProt Q15116 25-288). The experiment in a line: cell-based or functional assay.
T3 sequence (Q15116 25-288 limits assumed): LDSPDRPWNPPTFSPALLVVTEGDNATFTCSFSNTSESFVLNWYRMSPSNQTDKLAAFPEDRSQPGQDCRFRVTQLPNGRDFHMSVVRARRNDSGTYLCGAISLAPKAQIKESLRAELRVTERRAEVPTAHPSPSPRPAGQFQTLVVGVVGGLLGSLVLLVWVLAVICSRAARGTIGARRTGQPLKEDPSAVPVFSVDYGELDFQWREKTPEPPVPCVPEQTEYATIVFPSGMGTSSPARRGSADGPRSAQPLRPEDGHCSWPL
Assay [4] has as its target T4, human CTLA-4 expressed on cells (human, UniProt P16410 36-223).
T4 sequence: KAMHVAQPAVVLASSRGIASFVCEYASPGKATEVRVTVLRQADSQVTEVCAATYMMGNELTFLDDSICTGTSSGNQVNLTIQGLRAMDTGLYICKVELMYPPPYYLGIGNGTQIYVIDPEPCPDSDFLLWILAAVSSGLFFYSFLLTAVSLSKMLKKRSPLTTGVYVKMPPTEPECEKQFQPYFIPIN
The experiment in a line: cell-based or functional assay.

Assay [5] deals with T3, human PD-1 expressed on cells. The experiment in a line: flow cytometry, HumanPD1 CHO cells, x axis hIgG1TM mAb (nM). In general terms: In flow cytometry, cells or beads pass a laser one at a time.
The target in a further assay is T5, cynomolgus TIM3 (cynomolgus, UniProt A0A2K5U3G7 22-195).
T5 construct: also called Cyno TIM3
T5 sequence: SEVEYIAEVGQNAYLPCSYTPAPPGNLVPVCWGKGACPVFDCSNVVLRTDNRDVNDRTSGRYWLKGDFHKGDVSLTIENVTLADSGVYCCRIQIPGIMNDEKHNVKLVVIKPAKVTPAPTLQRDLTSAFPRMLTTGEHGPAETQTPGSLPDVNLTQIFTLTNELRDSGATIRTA
The experiment in a line: SPR, BIAcore T200; antibody captured on mouse anti-huIgG-Fab, antigen injected.

Assay [6] concerns the target T6, human PD-1 antigen (soluble) (human, UniProt Q15116 25-170).
T6 construct: also called hu PD1; Biotinylated human PD-1
The assay is described as above.

Another assay deals with T7, human TIM3 (soluble) (human, UniProt Q8TDQ0 22-202).
T7 construct: also called Biotinylated human TIM3
T7 sequence: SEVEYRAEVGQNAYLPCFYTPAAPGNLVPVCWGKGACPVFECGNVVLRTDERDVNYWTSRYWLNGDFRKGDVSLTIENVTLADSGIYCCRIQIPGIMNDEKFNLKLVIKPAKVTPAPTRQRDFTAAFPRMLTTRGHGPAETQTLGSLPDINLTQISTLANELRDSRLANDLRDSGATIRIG
Described as above.

The target of another assay is T8, cynomolgus PD-1 (cynomolgus, UniProt B0LAJ3 25-170).
T8 construct: also called cyno PD1
T8 sequence (B0LAJ3 entry or part of it limits assumed): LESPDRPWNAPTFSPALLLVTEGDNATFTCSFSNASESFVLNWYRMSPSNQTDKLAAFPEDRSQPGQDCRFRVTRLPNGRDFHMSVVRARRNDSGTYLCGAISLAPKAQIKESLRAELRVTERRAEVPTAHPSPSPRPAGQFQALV
The description is as above.

T6 sequence (Q15116 25-170 limits assumed): as the sequence (B0LAJ3 entry or part of it limits assumed) above, with E2D, A10P, L19V, A35T, R75Q, A144T counted along it

B1: Bis2 PD-L1/CTLA-4 (bispecific antibody, human IgG4 S228P, kappa)
heavy: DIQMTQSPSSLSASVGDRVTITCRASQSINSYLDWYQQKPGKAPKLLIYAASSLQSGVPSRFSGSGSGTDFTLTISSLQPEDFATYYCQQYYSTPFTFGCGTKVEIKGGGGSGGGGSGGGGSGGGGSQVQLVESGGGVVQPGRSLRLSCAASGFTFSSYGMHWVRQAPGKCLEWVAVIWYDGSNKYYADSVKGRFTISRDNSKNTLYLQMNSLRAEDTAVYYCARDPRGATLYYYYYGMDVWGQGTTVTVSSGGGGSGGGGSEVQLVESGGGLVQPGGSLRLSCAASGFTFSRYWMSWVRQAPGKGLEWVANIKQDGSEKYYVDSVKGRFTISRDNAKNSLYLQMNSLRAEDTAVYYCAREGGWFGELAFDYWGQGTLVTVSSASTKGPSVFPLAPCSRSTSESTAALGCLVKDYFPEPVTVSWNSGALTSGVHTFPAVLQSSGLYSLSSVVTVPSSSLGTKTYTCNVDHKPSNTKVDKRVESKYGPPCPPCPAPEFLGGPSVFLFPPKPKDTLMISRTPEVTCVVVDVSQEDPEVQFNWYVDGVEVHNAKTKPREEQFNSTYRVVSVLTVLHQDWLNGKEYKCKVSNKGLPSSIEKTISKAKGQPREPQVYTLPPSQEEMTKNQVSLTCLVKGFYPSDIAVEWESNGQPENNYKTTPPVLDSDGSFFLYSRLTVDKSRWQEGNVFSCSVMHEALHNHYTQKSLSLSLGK
light: EIVLTQSPGTLSLSPGERATLSCRASQRVSSSYLAWYQQKPGQAPRLLIYDASSRATGIPDRFSGSGSGTDFTLTISRLEPEDFAVYYCQQYGSLPWTFGQGTKVEIKRTVAAPSVFIFPPSDEQLKSGTASVVCLLNNFYPREAKVQWKVDNALQSGNSQESVTEQDSKDSTYSLSSTLTLSKADYEKHKVYACEVTHQGLSSPVTKSFNRGEC
B1: the binding result in assay [1] is reported as “binds”.

B2: Bis3 PD-L1/CTLA-4 (bispecific antibody, human IgG4 S228P, kappa)
heavy: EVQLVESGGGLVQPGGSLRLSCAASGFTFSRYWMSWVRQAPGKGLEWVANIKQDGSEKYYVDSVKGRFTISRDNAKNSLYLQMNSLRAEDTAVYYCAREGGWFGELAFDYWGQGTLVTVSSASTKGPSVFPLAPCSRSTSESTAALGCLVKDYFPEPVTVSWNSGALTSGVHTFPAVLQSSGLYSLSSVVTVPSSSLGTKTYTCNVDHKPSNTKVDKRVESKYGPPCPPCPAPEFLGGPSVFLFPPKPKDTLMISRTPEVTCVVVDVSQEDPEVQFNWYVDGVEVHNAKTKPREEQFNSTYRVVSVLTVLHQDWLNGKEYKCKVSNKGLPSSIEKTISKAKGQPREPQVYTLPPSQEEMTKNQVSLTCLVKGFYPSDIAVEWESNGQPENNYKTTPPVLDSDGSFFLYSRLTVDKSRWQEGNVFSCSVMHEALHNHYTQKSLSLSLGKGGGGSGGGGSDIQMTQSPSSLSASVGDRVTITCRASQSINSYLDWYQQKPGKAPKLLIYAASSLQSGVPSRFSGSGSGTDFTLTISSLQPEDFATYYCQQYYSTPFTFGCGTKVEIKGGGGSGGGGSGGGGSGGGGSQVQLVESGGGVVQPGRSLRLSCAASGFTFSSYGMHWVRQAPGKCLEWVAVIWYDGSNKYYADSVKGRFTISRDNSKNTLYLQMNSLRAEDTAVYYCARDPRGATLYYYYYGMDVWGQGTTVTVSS
light: B1 light
Regarding B2, the binding result in [1] is reported as “binds”.

B3: Bis5 PD-L1/CTLA-4 (bispecific antibody, human IgG4 S228P, kappa)
heavy: EVQLVESGGGLVQPGGSLRLSCAASGFTFSRYWMSWVRQAPGKGLEWVANIKQDGSEKYYVDSVKGRFTISRDNAKNSLYLQMNSLRAEDTAVYYCAREGGWFGELAFDYWGQGTLVTVSSASTKGPSVFPLAPCSRSTSESTAALGCLVKDYFPEPVTVSWNSGALTSGVHTFPAVLQSSGLYSLSSVVTVPSSSLGTKTYTCNVDHKPSNTKVDKRVESKYGPPCPPCPAPEFLGGPSVFLFPPKPKDTLMISRTPEVTCVVVDVSQEDPEVQFNWYVDGVEVHNAKTKPREEQFNSTYRVVSVLTVLHQDWLNGKEYKCKVSNKGLPSSIEKTISKAKGQPREPQVYTLPPSQEEMTKNQVSLTCLVKGFYPSDIAVEWESNGGGGSGGGGSDIQMTQSPSSLSASVGDRVTITCRASQSINSYLDWYQQKPGKAPKLLIYAASSLQSGVPSRFSGSGSGTDFTLTISSLQPEDFATYYCQQYYSTPFTFGCGTKVEIKGGGGSGGGGSGGGGSGGGGSQVQLVESGGGVVQPGRSLRLSCAASGFTFSSYGMHWVRQAPGKCLEWVAVIWYDGSNKYYADSVKGRFTISRDNSKNTLYLQMNSLRAEDTAVYYCARDPRGATLYYYYYGMDVWGQGTTVTVSSGGGGSGGGGSGQPENNYKTTPPVLDSDGSFFLYSRLTVDKSRWQEGNVFSCSVMHEALHNHYTQKSLSLSLGK
light: B1 light
Regarding B3, the binding result in assay [1] is listed as “binds”.

B4: PD-1(LO115)/OX40 BiS2 mAb (bispecific antibody, human IgG4 S228P, kappa)
heavy: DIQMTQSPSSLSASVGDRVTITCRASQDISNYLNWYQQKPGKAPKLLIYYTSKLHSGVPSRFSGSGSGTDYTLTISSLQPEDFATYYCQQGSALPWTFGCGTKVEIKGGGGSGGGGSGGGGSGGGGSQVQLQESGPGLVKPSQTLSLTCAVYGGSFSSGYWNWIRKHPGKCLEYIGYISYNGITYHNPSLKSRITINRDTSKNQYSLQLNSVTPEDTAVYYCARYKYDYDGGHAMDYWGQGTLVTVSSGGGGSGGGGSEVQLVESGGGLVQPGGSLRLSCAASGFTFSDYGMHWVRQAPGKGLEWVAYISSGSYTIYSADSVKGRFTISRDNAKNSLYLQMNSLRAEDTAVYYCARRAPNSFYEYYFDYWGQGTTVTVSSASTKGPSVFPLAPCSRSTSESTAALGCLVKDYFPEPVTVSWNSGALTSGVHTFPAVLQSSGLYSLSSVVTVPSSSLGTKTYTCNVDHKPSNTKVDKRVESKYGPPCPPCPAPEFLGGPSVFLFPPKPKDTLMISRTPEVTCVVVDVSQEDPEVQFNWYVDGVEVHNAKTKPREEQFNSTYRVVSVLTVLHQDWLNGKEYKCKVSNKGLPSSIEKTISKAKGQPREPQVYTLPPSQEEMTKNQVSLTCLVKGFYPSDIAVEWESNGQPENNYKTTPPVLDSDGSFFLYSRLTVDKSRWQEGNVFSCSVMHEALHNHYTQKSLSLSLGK
light: QIVLTQSPATLSLSPGERATLSCSASSKHTNLYWSRHMYWYQQKPGQAPRLLIYLTSNRATGIPARFSGSGSGTDFTLTISSLEPEDFAVYYCQQWSSNPFTFGQGTKLEIKRTVAAPSVFIFPPSDEQLKSGTASVVCLLNNFYPREAKVQWKVDNALQSGNSQESVTEQDSKDSTYSLSSTLTLSKADYEKHKVYACEVTHQGLSSPVTKSFNRGEC
On to B4, for which the “OX40 reporter assay, EC50 (relative light units)” value in assay [2] is ~2 nM. Moreover, the “PD-1/PD-L1 reporter assay, EC50 (relative light units)” value in [3] was ~1 nM.

B5: Bis5 PD-1/CTLA-4 (bispecific antibody, human IgG4 S228P, kappa)
heavy: EVQLVESGGGLVQPGGSLRLSCAASGFTFSDYGMHWVRQAPGKGLEWVAYISSGSYTIYSADSVKGRFTISRDNAKNSLYLQMNSLRAEDTAVYYCARRAPNSFYEYYFDYWGQGTTVTVSSASTKGPSVFPLAPCSRSTSESTAALGCLVKDYFPEPVTVSWNSGALTSGVHTFPAVLQSSGLYSLSSVVTVPSSSLGTKTYTCNVDHKPSNTKVDKRVESKYGPPCPPCPAPEFLGGPSVFLFPPKPKDTLMISRTPEVTCVVVDVSQEDPEVQFNWYVDGVEVHNAKTKPREEQFNSTYRVVSVLTVLHQDWLNGKEYKCKVSNKGLPSSIEKTISKAKGQPREPQVYTLPPSQEEMTKNQVSLTCLVKGFYPSDIAVEWESNGGGGSGGGGSDIQMTQSPSSLSASVGDRVTITCRASQSINSYLDWYQQKPGKAPKLLIYAASSLQSGVPSRFSGSGSGTDFTLTISSLQPEDFATYYCQQYYSTPFTFGCGTKVEIKGGGGSGGGGSGGGGSGGGGSQVQLVESGGGVVQPGRSLRLSCAASGFTFSSYGMHWVRQAPGKCLEWVAVIWYDGSNKYYADSVKGRFTISRDNSKNTLYLQMNSLRAEDTAVYYCARDPRGATLYYYYYGMDVWGQGTTVTVSSGGGGSGGGGSGQPENNYKTTPPVLDSDGSFFLYSRLTVDKSRWQEGNVFSCSVMHEALHNHYTQKSLSLSLGK
light: B4 light
B5: the “fold decrease in CTLA-4 reporter gene assay, potency” value in assay [4] is ~3 fold.

B6: BiS3 PD-1(LO115)/TIM3(O13-1) (bispecific antibody, human IgG1, kappa)
heavy: EVQLVESGGGLVQPGGSLRLSCAASGFTFSDYGMHWVRQAPGKGLEWVAYISSGSYTIYSADSVKGRFTISRDNAKNSLYLQMNSLRAEDTAVYYCARRAPNSFYEYYFDYWGQGTTVTVSSASTKGPSVFPLAPSSKSTSGGTAALGCLVKDYFPEPVTVSWNSGALTSGVHTFPAVLQSSGLYSLSSVVTVPSSSLGTQTYICNVNHKPSNTKVDKRVEPKSCDKTHTCPPCPAPEFEGGPSVFLFPPKPKDTLMISRTPEVTCVVVDVSHEDPEVKFNWYVDGVEVHNAKTKPREEQYNSTYRVVSVLTVLHQDWLNGKEYKCKVSNKALPASIEKTISKAKGQPREPQVYTLPPSREEMTKNQVSLTCLVKGFYPSDIAVEWESNGQPENNYKTTPPVLDSDGSFFLYSKLTVDKSRWQQGNVFSCSVMHEALHNHYTQKSLSLSPGKGGGGSGGGGSEVQLLESGGGLVQPGGSLRLSCAASGFTFSSYAMSWVRQAPGKCLEWVSAISGSGGSTYYADSVKGRFTISRDNSKNTLYLQMNSLRAEDTAVYYCARGSYGTYYGNYFEYWGQGTLVTVSSGGGGSGGGGSGGGGSGGGGSSYVLTQPPSVSVAPGKTARITCGGDNIGGKSVHWYQQKPGQAPVLVIYYDSDRPSGIPERFSGSNSGNTATLTISRVEAGDEADYYCQVLDRRSDHFLFGCGTKLTVL
light: B4 light
notes: also called PD-1/TIM3 BiS3
With B6, in assay [5], the “EC50 (read off the curve)” value is ~4 nM.

B7: PD-1(LO115)/TIM3(O13-1) DuetMab (bispecific antibody, human IgG1, kappa, lambda)
heavy 1: EVQLVESGGGLVQPGGSLRLSCAASGFTFSDYGMHWVRQAPGKGLEWVAYISSGSYTIYSADSVKGRFTISRDNAKNSLYLQMNSLRAEDTAVYYCARRAPNSFYEYYFDYWGQGTTVTVSSASTKGPSVFPLAPSSKSTSGGTAALGCLVKDYFPEPVTVSWNSGALTSGVHTFPAVLQSSGLYSLSSVVTVPSSSLGTQTYICNVNHKPSNTKVDKRVEPKSCDKTHTCPPCPAPEFEGGPSVFLFPPKPKDTLMISRTPEVTCVVVDVSHEDPEVKFNWYVDGVEVHNAKTKPREEQYNSTYRVVSVLTVLHQDWLNGKEYKCKVSNKALPASIEKTISKAKGQPREPQVCTLPPSREEMTKNQVSLSCAVKGFYPSDIAVEWESNGQPENNYKTTPPVLDSDGSFFLVSKLTVDKSRWQQGNVFSCSVMHEALHNHYTQKSLSLSPGK
light 1: B4 light
heavy 2: not shown
light 2: SYVLTQPPSVSVAPGKTARITCGGDNIGGKSVHWYQQKPGQAPVLVIYYDSDRPSGIPERFSGSNSGNTATLTISRVEAGDEADYYCQVLDRRSDHFLFGGGTKLTVLGQPKAAPSVTLFPPCSEELQANKATLVCLISDFYPGAVTVAWKADSSPVKAGVETTTPSKQSNNKYAASSYLSLTPEQWKSHRSYSCQVTHEGSTVEKTVAPTEVS
notes: also called PD-1/TIM3 DuetMab
Consider B7, for which the Kd with cynomolgus TIM3 amounted to 25.6 nM; in [6] it was 0.81 nM; with human TIM3 (soluble) it was 4.15 nM; with cynomolgus PD-1, 0.44 nM. Further, the koff with cynomolgus TIM3 was 0.0761 s⁻¹; in assay [6] it was 0.000236 s⁻¹; with human TIM3 (soluble) it was 0.00813 s⁻¹; with cynomolgus PD-1 it was 0.000215 s⁻¹. Besides, the on-rate (kon) was found to be 2.98e+06 M⁻¹ s⁻¹ in the assay with cynomolgus TIM3, 295000 M⁻¹ s⁻¹ in [6], 1.96e+06 M⁻¹ s⁻¹ with human TIM3 (soluble) and 490000 M⁻¹ s⁻¹ with cynomolgus PD-1.

B8: LO115 IgG1-TM (antibody, V domains shown)
VH: EVQLVESGGGLVQPGGSLRLSCAASGFTFSDYGMHWVRQAPGKGLEWVAYISSGSYTIYSADSVKGRFTISRDNAKNSLYLQMNSLRAEDTAVYYCARRAPNSFYEYYFDYWGQGTTVTVSS
VL: QIVLTQSPATLSLSPGERATLSCSASSKHTNLYWSRHMYWYQQKPGQAPRLLIYLTSNRATGIPARFSGSGSGTDFTLTISSLEPEDFAVYYCQQWSSNPFTFGQGTKLEIK
notes: also called parental LO115 IgG1
Consider B8, for which, in [6], the equilibrium dissociation constant (Kd) is 0.79 nM, the off-rate constant (koff) is 0.000237 s⁻¹ and the kon is 302000 M⁻¹ s⁻¹. In the assay with cynomolgus PD-1, this molecule yielded a Kd of 0.81 nM, an off-rate (koff) of 0.000238 s⁻¹ and an on-rate constant (kon) of 346000 M⁻¹ s⁻¹.

As usually defined, the EC50 (read off the curve) is the concentration needed to bring the measured effect to its halfway point. Higher therefore signals a need for much substance. Usually Kd stands for the constant that tells how readily two partners part at equilibrium. A higher Kd goes with weaker binding. Broadly, the koff is the first-order rate constant of dissociation. A low value points to slow dissociation. The kon is the rate constant with which the complex forms. Low values mean slower complex formation, high ones faster complex formation.

Source of the values: patent US20220251204A1 (AstraZeneca / MedImmune, published 2022).
